Assay results as given in patent US12129222B2, “Production of bitter principle derivatives” (Julius-Maximilians-Universitaet Wuerzburg, priority 2016, dated 2024).
Non-standard residues stand in square brackets, D forms with d.

Biological target: MMP-8 (Homo sapiens, UniProt P22894)
Assay: Enzymatic peptide cleavage by matrix metalloproteinases
Type: biochemical
Details: after cleavage from the resin; activated MMP, 1 h at 37° C., pH 7.0; LC-MS
Description: (§1) For that, a 2-3 hour activation of the pre-MMP by p-aminophenyl mercury acetate (APMA 10 mM in 0.1 M NaOH) in a ratio of 10:1 (MMP:APMA v/v) takes place at 37° C. Subsequently, the activated MMP is added to the peptides dissolved in buffer (200 mM NaCl, 50 mM Tris-HCl, 5 mM CaCl2, 1 μM ZnCl2, 0.05% BRIJ® 35, 0.05% NaN3, pH 7.0) in defined concentrations (9 ng/ml, 45 ng/ml, 90 ng/ml, 225 ng/ml, 450 ng/ml, and 900 ng/ml) and incubated for 1 h at 37° C. The reaction is stopped by separation/filtration of the MMP by centrifugation or addition of 10 equivalents of EDTA (250 mM). The cleavage products are analyzed by liquid chromatography with masse spectrometry coupling (LC-MS).
as §1, with “concentrations” for “concentrations (9 ng/ml, 45 ng/ml, 90 ng/ml, 225 ng/ml, 450 ng/ml, and 900 ng/ml)”, “mass” for “masse”

MMP-8, sequence (P22894 101-467, species assumed): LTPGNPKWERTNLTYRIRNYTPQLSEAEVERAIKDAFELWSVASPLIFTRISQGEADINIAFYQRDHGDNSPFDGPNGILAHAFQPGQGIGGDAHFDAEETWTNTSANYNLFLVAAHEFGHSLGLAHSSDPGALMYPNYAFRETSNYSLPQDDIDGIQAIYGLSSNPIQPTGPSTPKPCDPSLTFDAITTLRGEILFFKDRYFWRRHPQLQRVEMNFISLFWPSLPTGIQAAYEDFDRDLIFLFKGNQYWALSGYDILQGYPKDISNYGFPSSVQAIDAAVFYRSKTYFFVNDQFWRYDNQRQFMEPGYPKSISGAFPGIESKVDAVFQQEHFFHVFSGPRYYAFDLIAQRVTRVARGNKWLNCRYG

## NH2-G-p-q-G-I-A-G-q-Q—COOH: peptide modified by replacing L by D amino acids (small letters mean D-amino acids) (H-G[dP][dQ]GIAG[dQ]Q-OH; SMILES CC[C@H](C)[C@H](NC(=O)CNC(=O)[C@@H](CCC(N)=O)NC(=O)[C@H]1CCCN1C(=O)CN)C(=O)N[C@@H](C)C(=O)NCC(=O)N[C@H](CCC(N)=O)C(=O)N[C@@H](CCC(N)=O)C(=O)O)
  cleavage by matrix metalloproteinases (MMP) such as MMP-8: specifically cleaved
